Source: US12258430B2, “Compositions and methods for labeling and modulation of cells in vitro and in vivo” (President and Fellows of Harvard College, priority 2018, dated 2025)

Columns and labels:
[1] = test system: DC2.4 cells; experiment: Metabolic labeling of DC2.4 cells with azido-sugars, detected by DBCO agents (flow cytometry); assay type: cell-based; conditions: 3 days incubation, DBCO-Cy5 staining 30 min; vs control cells without pretreatment
Description: It was first tested whether tetraacetyl-N-azidoacetylmannosamine (Ac4ManAz), a commonly used metabolic labeling agent, can label DC2.4 cell line with azido groups (FIG. 2A). Ac4ManAz was synthesized following the reported procedure (Wang, H. et al. Selective in vivo metabolic cell-labeling-mediated cancer targeting. Nature Chemical Biology 13, 415-424 (2017)). […] For flow cytometry analysis of azido-labeled cells, cells were seeded in a 24-well plate at a density of 1×10^4 cells per well and allowed to attach for 12 hours. Azido-sugar was added and incubated with cells for 72 hours. […] Cells were then collected via a cell scraper, re-suspended in FACS buffer, and analyzed by flow cytometry.

[2] = Water-solubility of azido-sugar; assay type: physicochemical
[3] = test system: azido-labeled BMDCs; experiment: In vitro capture of DBCO-OVA and DBCO-CpG by azido-labeled BMDCs; assay type: cell-based; conditions: BMDCs labeled with G400 NP three days, 30 min incubation; vs FITC-OVA
Description: Another objective of this invention was to utilize azido-labeled DCs, as achieved above, for LN-targeted delivery of DBCO-bearing antigens and adjuvants. It was first studied whether azido-labeled DCs could covalently capture DBCO-ovalbumin (OVA) and DBCO-CpG in vitro. BMDCs were labeled with G400 NP for three days and incubated with DBCO/FITC-OVA or FITC-OVA for 30 min. […] Similarly, BMDCs pretreated with G400 NP were able to capture more DBCO/Cy5-CpG than control BMDCs (FIGS. 5C and 5D).

[4] = test system: azido-labeled DCs in dLNs; experiment: In vivo LN-targeted delivery of DBCO-OVA; parameters: species or system C57BL/6 mice; conditions: for A647 signal of LNs: 48 h post injection
From the text: It was next studied whether the azido-labeled DCs in dLNs can mediate targeted delivery of DBCO-OVA via Click chemistry.

**Q.** For CC(=O)OC[C@H]1OC(OC(C)=O)[C@@H](NC(=O)CN=[N+]=[N-])[C@@H](OC(C)=O)[C@@H]1OC(C)=O (some centres unmarked) [Ac4ManAz, tetraacetyl-N-azidoacetylmannosamine], which “Cy5 signal of DC2.4 cells” value [1] is on record?
**A.** significantly enhanced Cy5 signal

**Q.** What about the water-solubility [2] of the same molecule?
**A.** poor

B1: DBCO/FITC-OVA: DBCO- and FITC-modified ovalbumin (conjugate, UniProt P01012 2-386, looked up)
Ovalbumin: GSIGAASMEFCFDVFKELKVHHANENIFYCPIAIMSALAMVYLGAKDSTRTQINKVVRFDKLPGFGDSIEAQCGTSVNVHSSLRDILNQITKPNDVYSFSLASRLYAEERYPILPEYLQCVKELYRGGLEPINFQTAADQARELINSWVESQTNGIIRNVLQPSSVDSQTAMVLVNAIVFKGLWEKAFKDEDTQAMPFRVTEQESKPVQMMYQIGLFRVASMASEKMKILELPFASGTMSMLVLLPDEVSGLEQLESIINFEKLTEWTSSNVMEERKIKVYLPRMKMEEKYNLTSVLMAMGITDVFSSSANLSGISSAESLKISQAVHAAHAEINEAGREVVGSAEAGVDAASVSEEFRADHPFLFCIKHIATNAVLFFGRCVSP
modifications: FITC, DBCO
notes: DBCO- and FITC-modified ovalbumin
**Q.** For B1, which “cellular uptake by azido-labeled BMDCs” value [3] is on record?
**A.** improved cellular uptake

B2: A647-OVA: Alexa fluor647-conjugated OVA without DBCO (conjugate, UniProt P01012 2-386, looked up)
Ovalbumin: B1 Ovalbumin
modifications: Alexa Fluor 647
notes: Alexa fluor647-conjugated OVA without DBCO
**Q.** With B2 as the molecule, how does the “A647 signal of LNs” value [4] read?
**A.** dramatically decreased

B3: DBCO/A647-OVA: Alexa fluor647 (A647)-conjugated DBCO-OVA (conjugate, UniProt P01012 2-386, looked up)
Ovalbumin: B1 Ovalbumin
modifications: Alexa Fluor 647, DBCO
**Q.** For B3, which “percentage of A647-OVA+ DCs in dLNs” value ([4]; 6 h post injection) is on record?
**A.** ~43%

**Q.** And the “A647 fluorescent signal in dLNs” value ([4]; 6 h post injection, vs A647-OVA)?
**A.** significantly enhanced A647 fluorescent signal

**Q.** What about the “accumulation in dLNs” value ([4]; 24 h post injection, vs A647-OVA) of the same molecule?
**A.** significantly improved accumulation

**Q.** What about the “A647 signal of LNs” value [4] of the same molecule?
**A.** dramatically decreased
